Earlier results, collected in article PMC12655228.

Target: HER2 (Homo sapiens) (UniProt P04626)

In the case of Trastuzumab, the Kd is listed as 0.1 nM.
